Experimental data taken from patent US6936586B1, “Synthetic IL-10 analogues” (Steeno Research Group A/S, priority 1996, dated 2005).
Peptide text beside a SMILES is read from it.

Columns and labels:
[1] = test system: human monocytes; assay: Viability of cultured cells with IT9302; type: cell-based; conditions: any concentration of IT9302 between 0.1 and 1000 ng/ml; viability always exceeded 80% after 1 day in culture
[2] = test system: PBMCs; assay: T cell proliferation, PHA stimulated PBMC, 3H-thymidine incorporation; type: cell-based, human; conditions: 72 hours, 3H-thymidine last 18 hours
Protocol: Proliferation assay. PBMCs (2×10^5) were cultivated in 200 μl of RPMI medium with 10% FCS for 72 hours with PHA 0.5 μl/ml and rhIL-10 (1, 10, 100 ng/ml) or IT9302 (0.1, 1, 10 ng/ml) in triplets. The last 18 hours ^3H-thymidine was added with 0.5 μCi/well (Amersham, Denmark). The cells were harvested on a filter (Glass Microfibre Filters, Whatman, Cat. No. 1822 849) and scintillation fluid (Ultima, Gold MV, Packard) was added. The scintillation counting was made on Tri-Carb model 1600 TR, Packard.
PBMC's were stimulated with PHA as described above and rhIL-10 and IT9302 were added for 72 hours, and the ^3H-thymidine incorporation was measured for the last 18 hours.

[3] = test system: normal human CD4+ T cells; assay: IL-4 production by cultured CD4+ T lymphocytes, ECL-Western blotting; type: cell-based; conditions: IT9302 10 ng/ml or IL-10 100 ng/ml, 3 days, cytosolic fractions
Protocol: CD4+ T lymphocytes were purified from heparinized normal human blood. Following Lymphoprep™ (Nycomed Pharma, Oslo, Norway) gradient centrifugation, the mononuclear cells were further sorted at 4° C. using Dynabeads (Dynal AS, Norway) coated with monoclonal anti-CD4 antibodies. The beads were detached by adding polyclonal anti-mouse antibody (Dynal AS, Norway). The purity of the positively selected cells were higher than 99% as judged by FACS analysis. […]
Cells or freeze-dried cell culture supernatants were used for IL-4 protein content determination. […] The blots were then incubated with a polyclonal goat anti-human IL-4 antibody (R&D Systems, UK) followed by a horseradish peroxidase-labelled secondary antibody (Cat. no. RPN 2106 ECL, Amersham, UK), and the immunostaining was detected by exposing a film (Kodak X-OMAT-S, USA) for 90 seconds.
Thus, CD4+ T cells, purified as described in “Methods for T cell chemotaxis”, and cultured as described in the section “Determination of IL-4 production by CD4+ T lymphocytes”, were stimulated for 3 days with IT9302 (10 ng/ml) or IL-10 (100 ng/ml). Cytosolic fractions were collected and analyzed for their IL-4 content using Western blotting (FIG. 9) and a goat anti-human IL-4 polyclonal antibody.

[4] = test system: human monocytes; assay: Determination of apoptosis in monocytes (DNA typing, propidium iodide flow cytometry); type: cell-based; conditions: with IFN-γ stimulation; non-stimulated 6.6%, IFN-γ alone 4.1%
Protocol: Alternatively cells were fixed in 10% DMSO, 40% RPMI 1640 and 50% sterile FCS, and stored at −80° C. and used for DNA typing.
DNA typing of the stimulated monocytes. The fixed cells were incubated in 70 ethanol for 60 minutes and washed twice in Hank's solution. 1×10^6 cells were resuspended in 250 μl of RNase 1 μg/ml in 1.12% sodium citrate, pH 8.4 (Ribonuclease A, Pharmacia No. 17-0442-01) and incubated at 37° C. for 3 minutes. Thereafter, 250 μl of propidiumiodide (50 μg/ml in Hank's solution) was added, and cells were incubated in the dark for 30 minutes. After this the cells were washed twice in Hank's solution (Jensen et al., (110)). The DNA content was measured by flow cytometry on a Coulter-Epics XL-MCL at a wavelength of 550 nm.
The IFN-γ stimulated monocytes from above were incubated with propidium iodide and the DNA content was measured by flow cytometry. The fraction of cells expressing DNA in G1 or G2 phase of cell proliferation was measured and also the fraction expressing apoptosis.

[5] = test system: human monocytes; assay: Class II MHC (HLA-DR) antigen expression on IFN-γ stimulated human monocytes, flow cytometry; type: cell-based; conditions: 10 ng/ml rhIL-10 before IFN-γ 10 ng/ml, 40 hours; unstimulated 36.8%, IFN-γ alone 58.4%
Protocol: HLA-DR expression on human monocytes. The monocytes were isolated from fresh, heparinized blood by adherence to plastic at 37° C. in RPMI 1640 containing 10% FCS. After incubation, the supernatant was removed, Hank's solution (4° C. with 1% FCS) was added, and the cells were detached by cooling at […] for 15 minutes and gentle banging to the table. Monocytes were stimulated (2×10^6 cells/ml) in RPMI 1640 added 2% FCS, with IFN-γ (10 ng/ml), or rhIL-10 (100, 10, 1 ng/ml) added before IFN-γ, or IT9302 (10, 1, 0.1 ng/ml) added before IFN-γ for 40 hours. The cells were detached from the wells by cooling as before. Fresh, non-fixed cells were used for surface typing by antihuman antibody for HLA-DR. The cells were resuspended in Hank's solution with 1% FCS, 1×10^6 cells/ml and FITC conjugated mouse-anti-human HLA DR, DP, […] antibodies were added (F 0817, DAKO Denmark) for 45 minutes. The cells were washed three times in Hank's solution and a FACS analysis was performed on a Coulter-Epics XL-MCL flow cytometer at a wavelength of 488 nm. Non-specific binding was determined with a non-relevant Fitch conjugated antibody (mouse anti goat DAKO F 479).
The monocytes were purified as described above and stimulated for 40 hours by IFN-γ (10 ng/ml) and/or rhIL-10 and/or IT9302 added 30 minutes before IFN-γ. […]

Molecule: CC[C@H](C)[C@H](NC(=O)[C@H](CCCCN)NC(=O)[C@H](CCSC)NC(=O)[C@@H](NC(=O)[C@H](CCSC)NC(=O)[C@H](Cc1ccc(O)cc1)NC(=O)[C@H](C)N)[C@@H](C)O)C(=O)N[C@@H](CCCNC(=N)N)C(=O)N[C@@H](CC(N)=O)C(=O)O [IT9302, NH2-Ala-Tyr-Met-Thr-Met-Lys-Ile-Arg-Asn-COOH] (H-AYMTMKIRN-OH)
- effect on viability of cells [1]: did not in this or in the following examples affect viability

B1: rhIL-10: recombinant human interleukin 10 obtained from Pepro Tech Inc. (protein)
chain: SPGQGTQSENSCTHFPGNLPNMLRDLRDAFSRVKTFFQMKDQLDNLLLKESLLEDFKGYLGCQALSEMIQFYLEEVMPQAENQDPDIKAHVNSLGENLKTLRLRLRRCHRFLPCENKSKAVEQVKNAFNKLQEKGIYKAMSEFDIFINYIEAYMTMKIRN
- optimum concentration for downregulation of cell proliferation [2]: 100 ng/mL
- production of IL-4 by cultured normal human CD4+ T cells [3]: induce the production of IL-4
- fraction of monocytes expressing apoptosis [4]: 10.3%
- MHC II antigen expression in the cell population [5]: 25.2%
